Experimental findings from patent US20230265458A1 are described below.

For assay [1], the target named is human CD19 (hCD19, hCD19 variant 2), expressed on U87MG cells from the sRRVe-F4-hCD19 vector (human) (UniProt P15391). Nature of the assay: cell-based or functional assay.
Assay [2] deals with truncated human CD19 (hCD19t, CD19t), 323 amino acids, 233 amino acids of the cytoplasmic domain removed (human) (UniProt P15391). The experiment in a line: cell-based or functional assay.

“anti-CD19 CAR-T (chimeric antigen receptor against CD19 on T cells)”: in assay [1], the decrease in cell viability, WST-1 assay, E:T ratio 0.5:1, first day; U87MG cells transfected with sRRVgp-F4-DsRed/sRRVe-F4-hCD19 came to 54.9% and the decrease in cell viability, WST-1 assay, E:T ratio 1:1, within 1 day; U87MG cells transfected with sRRVgp-F4-DsRed/sRRVe-F4-hCD19 came to 25.8%. In addition, in assay [2], the decrease in cell viability, WST-1 assay, E:T ratio 0.5:1, first day; U87MG cells transfected with sRRVgp-F4-hCD19t/sRRVe-F4-TK was determined as 54.3%; the decrease in cell viability, WST-1 assay, E:T ratio 0.5:1, first day; U87MG cells transfected with sRRVgp-F4-yCD/sRRVe-F4-hCD19t came out at 58.2%; the decrease in cell viability, WST-1 assay, E:T ratio 1:1, within 1 day; U87MG cells transfected with sRRVgp-F4-hCD19t/sRRVe-F4-TK worked out at 24.8%; the decrease in cell viability, WST-1 assay, E:T ratio 1:1, within 1 day; U87MG cells transfected with sRRVgp-F4-yCD/sRRVe-F4-hCD19t was 20%.
